Measurements published in publication PMC9704708 (Proceedings of the National Academy of Sciences of the …, 2022).

Experiments:
[1] = molecular target: cytochrome c endogenous in Vero cells (Chlorocebus (African green monkey), …, UniProt G4XXN2); assay: immunostaining of cells or tissue
[2] = molecular target: cytochrome c endogenous in human cells (HeLa, IMR-90) (Homo sapiens, UniProt P99999); assay: immunostaining of cells or tissue
[3] = molecular target: T1, cytochrome c endogenous in mouse melanoma B16-F1 cells (Mus musculus, UniProt P62897); assay: immunostaining of cells or tissue
[4] = molecular target: cytochrome c endogenous in bovine aortic endothelial cells (Bos taurus, UniProt P62894); assay: immunostaining of cells or tissue
[5] = molecular target: T1, cytochrome c endogenous in mouse …; assay: flow cytometry on cells
[6] = molecular target: 1–65 CNBr-cleaved peptide of cytochrome c (Equus caballus (assumed), UniProt P00004); assay: ELISA

Measured: binding result

T1 sequence (P62897 whole entry): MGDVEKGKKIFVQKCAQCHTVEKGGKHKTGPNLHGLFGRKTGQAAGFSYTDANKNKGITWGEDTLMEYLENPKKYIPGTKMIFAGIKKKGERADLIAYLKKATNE
Sequence of cytochrome c endogenous in bovine aortic endothelial cells (P62894 whole entry): as the sequence (P62897 whole entry) above, with A45P, D63E, A93E counted along it
Sequence of 1–65 CNBr-cleaved peptide of cytochrome c (P00004 2-66): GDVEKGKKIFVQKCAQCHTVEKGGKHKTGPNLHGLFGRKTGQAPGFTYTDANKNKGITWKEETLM
Sequence of cytochrome c endogenous in human cells (HeLa, IMR-90) (P99999 whole entry): as the sequence (P62897 whole entry) above, with V12I, Q13M, A16S, A45P, F47Y, D51A, T59I, A84V, G90E counted along it

B1: monoclonal antibody 1D3 (original, hybridoma-derived) (antibody, V domains shown)
VH: QVQLQQPGAELVKPGASVKMSCKASGYTFTSNNMHWVKQTPGQGLEWIGGLYPGNGDTSYNQKFKGKATLTADKSSSTAYMQLSSLTSGDSAVYYCARGIRDFFAMDYWGQGTSVTVSS
VL: DIQMTQSPASQSASLGESVTITCLASQTIGTWLAWYQQKPGKSPQLLIYAATSLADGVPSRFSGSGSGTKFSFKISSLQAEDFVSYYCQQLYSTPLTFGAGTKLELK
binds: [1] | [2] | [3] | [4]

B2: recombinant monoclonal antibody R1D3 (antibody, V domains shown)
VH: QVQLQQPGAELVKPGASVKMSCKASGYTFTSNNMHWVKQTPGQGLEWIGGLYPGNGDTSYNQKFKGKATLTADKSSSTAYMQLSSLTSGDSAVYYCARGIRDFFAMDYWGQGTSVTVSS
VL: DIQMTQSPASQSASLGESVTITCLASQTIGTWLAWYQQKPGKSPQLLIYAATSLADGVPSRFSGSGSGTKFSFKISSLQAEDFVSYYCQQLYSTPLTFGAGTKLELK
binds: [5] | [6] | [1]
